We go through 1 substance from article PMC6755124.

One may read the Kd as the concentration at which binding is half-saturated.

In the data set the test system is C6orf203 mature form (Homo sapiens). The experiment in a line: EMSA. The conditions noted are these: 100 nM RNA, 0-2.56 uM protein; EMSA buffer, salt, pH and temperature not given (performed as previously described, ref 19); 100 nM fluorescein-labeled RNA; protein purified in 25 mM Tris-HCl …. Background: Mobility shift assays separate free from complexed probe on a gel.

With mt-tRNAPro, the Kd turned out to be 290 nM.
